Starred links: 1 amine or outer side, 2 acyl side, 3 side chain; linkers in the order of their positions; H or OH if unused. Positions of bridges follow the written chain, without caps; N, C: chain ends. Non-standard residues stand in square brackets, D forms with d. Primed or numbered codes have the meaning given here. *: point of attachment. PyrS2(3) = (S)-3-amino-1-((pent-4-en-1-yloxy)carbonyl)pyrrolidine-3-carboxylic acid, stapling residue, C=CCCCOC(=O)N1CC[C@@](N[*:1])(C(=O)[*:2])C1; PyrS2″ = (S)-3-amino-1-((pent-4-en-1-yloxy)carbonyl)pyrrolidine-3-carboxylic acid (stapling residue), C=CCCCOC(=O)N1CC[C@@](N[*:1])(C(=O)[*:2])C1; B5(18) = 2,2-bis(4-pentenyl)glycine (2-amino-2-(pent-4-en-1-yl)hept-6-enoic acid), stitching residue, C=CCCCC(CCCC=C)(N[*:1])C(=O)[*:2]; TfeGA = (S)-2-amino-3-((carboxymethyl)(2,2,2-trifluoroethyl)amino)propanoic acid, O=C([C@H](CN(CC(=O)[*:3])CC(F)(F)F)N[*:1])[*:2]; PyrS2 = (S)-3-amino-1-((pent-4-en-1-yloxy)carbonyl)pyrrolidine-3-carboxylic acid, C=CCCCOC(=O)N1CC[C@@](N[*:1])(C(=O)[*:2])C1; 2COOH4NO2Ph = 2-carboxy-4-nitrophenyl group on the side chain (attached at Dap N or Cys S), O=C(O)c1cc([N+](=O)[O-])ccc1*; B5(12) = 2-amino-2-(pent-4-en-1-yl)hept-6-enoic acid (two olefin side chains), C=CCCCC(CCCC=C)(N[*:1])C(=O)[*:2]; HypEs5 = (2R,4S)-4-(pent-4-enoyloxy)pyrrolidine-2-carboxylic acid, C=CCCC(=O)O[C@H]1C[C@H](C(=O)[*:2])N([*:1])C1; 2COOHF = (S)-2-(2-amino-2-carboxyethyl)benzoic acid, O=C([C@H](Cc1ccccc1C(=O)[*:3])N[*:1])[*:2]; GAbu = (S)-2-amino-4-((carboxymethyl)amino)butanoic acid, O=C([C@H](CCNCC(=O)[*:3])N[*:1])[*:2]; B5(3) = 2,2-bis(4-pentenyl)glycine (stitching residue), C=CCCCC(CCCC=C)(N[*:1])C(=O)[*:2]; Phe(3-COOH) = N[C@@H](Cc1cccc(C(=O)O)c1)C(=O)O; Phe(4-COOH) = N[C@@H](Cc1ccc(C(=O)O)cc1)C(=O)O; Phe(2-Cl) = N[C@@H](Cc1ccccc1Cl)C(=O)O; Bta = N[C@@H](Cc1csc2ccccc12)C(=O)O; αAllylPro = C=CC[C@@]1(C(=O)O)CCCN1; tBuAla = CC(C)(C)C[C@H](N)C(=O)O; 3Thi = N[C@@H](Cc1ccsc1)C(=O)O; Cit = NC(=O)NCCC[C@H](N)C(=O)O; 2Nic = not defined here; Dap = NC[C@H](N)C(=O)O
T1: B-cat-Halo (beta-catenin HaloTag construct expressed in HEK293 cells) (UniProt P35222 1-781)
T1 sequence (looked up): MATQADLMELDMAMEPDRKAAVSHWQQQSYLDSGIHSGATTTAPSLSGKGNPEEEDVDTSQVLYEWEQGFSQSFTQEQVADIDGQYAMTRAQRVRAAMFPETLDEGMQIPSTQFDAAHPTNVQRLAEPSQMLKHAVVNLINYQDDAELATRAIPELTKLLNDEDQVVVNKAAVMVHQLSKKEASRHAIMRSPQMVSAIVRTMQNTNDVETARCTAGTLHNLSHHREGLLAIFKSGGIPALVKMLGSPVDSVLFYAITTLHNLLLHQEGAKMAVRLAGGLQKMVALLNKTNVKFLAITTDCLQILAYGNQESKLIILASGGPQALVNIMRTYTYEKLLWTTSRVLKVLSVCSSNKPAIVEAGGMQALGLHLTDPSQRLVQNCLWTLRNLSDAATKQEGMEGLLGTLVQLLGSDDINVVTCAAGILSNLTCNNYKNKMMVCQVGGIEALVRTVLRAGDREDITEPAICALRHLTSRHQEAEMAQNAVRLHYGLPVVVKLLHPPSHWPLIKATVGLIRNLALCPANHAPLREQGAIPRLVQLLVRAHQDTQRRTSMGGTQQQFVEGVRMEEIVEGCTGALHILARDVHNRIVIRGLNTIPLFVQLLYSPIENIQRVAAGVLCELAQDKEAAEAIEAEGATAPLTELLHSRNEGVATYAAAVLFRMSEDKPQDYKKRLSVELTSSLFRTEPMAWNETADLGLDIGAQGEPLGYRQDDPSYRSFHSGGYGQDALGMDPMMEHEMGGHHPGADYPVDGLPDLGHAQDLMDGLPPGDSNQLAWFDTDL

T2: B-cat-Halo (UniProt P35222 1-781)
T2 sequence (looked up): T1 sequence (looked up)

B1: I-1840 (peptide)
peptide: Ac-[αAllylPro]D[tBuAla][B5(18)]D[GAbu](Ac)AAFL[PyrS2(3)][3Thi][Bta]Q-NH2
modifications: staple 1-4, 4-11; also: double bonds not converted
B2: I-1848 (peptide)
peptide: Ac-[αAllylPro]D[tBuAla][B5(18)]DC(2COOH4NO2Ph)AAFL[PyrS2(3)][3Thi][Bta]Q-NH2
modifications: staple 1-4, 4-11
B3: I-1846 (peptide)
peptide: Ac-[HypEs5]D[tBuAla][B5(18)]D[TfeGA]AAFT[PyrS2(3)][Phe(2-Cl)][Bta]Q-NH2
modifications: staple 1-4, 4-11
B4: I-1849 (peptide)
peptide: Ac-[αAllylPro]D[tBuAla][B5(18)]D[Phe(3-COOH)]AAFA[PyrS2(3)][Phe(2-Cl)][Bta]S-NH2
modifications: staple 1-4, 4-11
B5: I-1841 (peptide)
peptide: Ac-[αAllylPro]D[tBuAla][B5(18)]D[GAbu]AAFL[PyrS2(3)][3Thi][Bta]Q-NH2
modifications: staple 1-4, 4-11
B6: I-1845 (peptide)
peptide: Ac-[αAllylPro]D[tBuAla][B5(18)]D[Dap](2Nic)AAFL[PyrS2(3)][3Thi][Bta]Q-NH2
modifications: staple 1-4, 4-11; reading uncertain
B7: I-1843 (peptide)
peptide: Ac-[αAllylPro]D[tBuAla][B5(18)]D[Dap](2COOH4NO2Ph)AAFL[PyrS2(3)][3Thi][Bta]Q-NH2
modifications: staple 1-4, 4-11
B8: I-1847 (peptide)
peptide: Ac-[HypEs5]D[tBuAla][B5(18)]D[Phe(3-COOH)]AAFL[PyrS2(3)][Phe(2-Cl)][Bta]Q-NH2
modifications: staple 1-4, 4-11
B9: I-841 (peptide)
peptide: Ac-[αAllylPro]D[tBuAla][B5(3)]D[Cit]AAFN[PyrS2″][3Thi][Bta]H-NH2
modifications: staple 1-4, 4-11
B10: I-837 (peptide)
peptide: Ac-[αAllylPro]D[tBuAla][B5(3)]DNAAFN[PyrS2″][3Thi][Bta]H-NH2
modifications: staple 1-4, 4-11
B11: I-856 (peptide)
peptide: Ac-[αAllylPro]D[tBuAla][B5(12)]DNAAFL[PyrS2][3Thi][Bta]Q-NH2
modifications: staple 1-4, 4-11
B12: I-851 (peptide)
peptide: Ac-[αAllylPro]D[tBuAla][B5(3)]D[Phe(4-COOH)]AAFL[PyrS2][3Thi][Bta]Q-NH2
modifications: staple 1-4, 4-11
B13: I-852 (peptide)
peptide: Ac-[αAllylPro]D[tBuAla][B5(3)]D[Phe(3-COOH)]AAFF[PyrS2][3Thi][Bta]Q-NH2
modifications: staple 1-4, 4-11
B14: I-854 (peptide)
peptide: Ac-[αAllylPro]D[tBuAla][B5(12)]D[2COOHF]AAFL[PyrS2][3Thi][Bta]Q-NH2
modifications: staple 1-4, 4-11

What follows are binders tested against T1, B-cat-Halo (beta-catenin HaloTag …) (assay: cell-based or functional assay).
With B1 the “NanoBRET Abs IC50” value was 22.3 µM.
With B2 the “NanoBRET Abs IC50” value was > 20 µM.
For B3, the “NanoBRET Abs IC50” value was 29.8 µM.
With B4 the “NanoBRET Abs IC50” value was 8.8 µM.
In the case of B5, the “NanoBRET Abs IC50” value is reported as > 20 µM.
With B6 the “NanoBRET Abs IC50” value was 6.3 µM.
For B7, the “NanoBRET Abs IC50” value was 9.5 µM.
In the case of B8, the “NanoBRET Abs IC50” value is reported as 26.2 µM.

What follows are binders tested against T2, B-cat-Halo (assay: cell-based or functional assay).
In the case of B9, the “NanoBRET Abs IC50” value is reported as 34.4 µM.
For B10, the “NanoBRET Abs IC50” value was 23.8 µM.
In the case of B11, the “NanoBRET Abs IC50” value is reported as 6.8 µM.
B12 was tested, and the “NanoBRET Abs IC50” value was 7.6 µM.
For B13, the “NanoBRET Abs IC50” value was 2.8 µM.
B14 was tested, and the “NanoBRET Abs IC50” value was 3.6 µM.
